Results from paper PMC5593996.

Columns and labels:
Q13148 [1] = experiment: NMR HSQC peak intensities (fraction of globular monomer); 1 mM RRM2 under oxidation with 5 mM H2O2 (2 h or 24 h); loss of monomer signals taken as conversion into oligomers and aggregate particles; standard phosphate buffer pH 6.7; conditions: other: NMR HSQC peak intensities (fraction of globular monomer)
[2] = biological target: second RNA-recognition motif (RRM2) of TDP-43, wild type, residues 191-265 (human) (UniProt Q13148); experiment: NMR HSQC peak intensities (fraction of globular monomer); reduced samples: first treated with 5 mM H2O2, then with 25 mM DTT
Q13148 [3] = experiment: dynamic light scattering + other: pulsed-field-gradient NMR diffusion; fully oxidized sample (5 mM H2O2, about 31 h); size distribution of aggregate particles fitted to both diffusion coefficients (Eq. 6), NMR on peak N265'
[4] = biological target: second RNA-recognition motif (RRM2) of TDP-43, wild type, residues 191-265 (human) (UniProt Q13148); experiment: NMR HSQC peak intensities (fraction of globular monomer); 1 mM RRM2 under oxidation with 5 mM H2O2 (2 h or 24 h); loss of monomer signals taken as conversion into oligomers and aggregate particles; standard phosphate buffer pH 6.7
Q13148 [5] = experiment: NMR HSQC peak intensities (fraction of globular monomer); reduced samples: first treated with 5 mM H2O2, then with 25 mM DTT; conditions: other: NMR HSQC peak intensities (fraction of globular monomer)
[6] = biological target: second RNA-recognition motif (RRM2) of TDP-43, wild type, residues 191-265 (human) (UniProt Q13148); experiment: cross-linking; disulfide-linked oligomers on non-reducing SDS-PAGE (14% tris-glycine, Coomassie, densitometry); 1 mM protein incubated 2 h with 5 mM H2O2

B1: second RNA-recognition motif (RRM2) of TDP-43, wild type, residues 191-265 (protein)
chain: MRKVFVGRCTEDMTEDELREFFSQYGDVMDVFIPKPFRAFAFVTFADDQIAQSLCGEDLIIKGISVHISNAEPKHN
percent of the protein in aggregate particles after 2 h with 5 mM H2O2 (Q13148 [1]): 60% (±4%) of the protein has been transformed into APs
percent monomer in the reduced samples [2]: 84%
mass fraction of the aggregate mass in all other aggregate particles (Q13148 [3]): all other APs combined account for 83% of the aggregate mass
mass fraction of the aggregate mass that is disulfide-bonded dimers (Q13148 [3]): The mass fraction of the disulfide-bonded dimers is 17%
percent (mass fraction) left as globular monomer after 24 h with 5 mM H2O2 [4]: 4.5%
percent left as globular monomer after 2 h with 5 mM H2O2 [4]: 40%
percent of protein mass still aggregated after 2 h oxidation and 3 h reduction (Q13148 [5]): ca. 19% of the protein by mass remains in the aggregate form
percent of protein mass still aggregated after 24 h oxidation and 24 h reduction (Q13148 [5]): ca. 40% of the protein mass in this sample remains in the aggregated state
fraction of cross-linked protein molecules (gel densitometry, 2 h with 5 mM H2O2) [6]: 40%
